Molecular target: CXL10_HUMAN (human) (UniProt P02778)
Experiment: cell-based or functional assay

CXL10_HUMAN (human), sequence (P02778 22-98 limits assumed): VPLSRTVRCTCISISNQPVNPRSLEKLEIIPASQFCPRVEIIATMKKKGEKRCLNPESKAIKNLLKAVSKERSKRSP

“EVA4_RHISA protein (from UniProt P0C8E9 24-127)” gave a cell migration of 20 µM.
